Reference: patent publication US20260001928A1 (CORTERIA PHARMACEUTICALS, priority 2022, published 2026)
*1 amine or outer side, *2 acyl side, *3 side chain or, on linkers, in order; H or OH if unused. Side-chain parts run from the residue outwards. [ ]: non-standard residue; d: D form. The star is where a group is joined. C20 diacid = O=C(O)CCCCCCCCCCCCCCCCCCC(=O)*; γGlu = O=C(O)[C@H](CCC(=O)[*:2])N[*:1]; Myristoyl = CCCCCCCCCCCCCC(=O)*; Lauroyl = CCCCCCCCCCCC(=O)*; Api = NC1(C(=O)O)CCNCC1; Aib = CC(C)(N)C(=O)O

What was measured:
[1] = target: human corticotropin-releasing factor 2a (CRF2a receptor) (human), Q13324; assay: cell-based or functional assay
human corticotropin-releasing factor 2a (CRF2a receptor) (human), Q13324, sequence (Q13324 20-411): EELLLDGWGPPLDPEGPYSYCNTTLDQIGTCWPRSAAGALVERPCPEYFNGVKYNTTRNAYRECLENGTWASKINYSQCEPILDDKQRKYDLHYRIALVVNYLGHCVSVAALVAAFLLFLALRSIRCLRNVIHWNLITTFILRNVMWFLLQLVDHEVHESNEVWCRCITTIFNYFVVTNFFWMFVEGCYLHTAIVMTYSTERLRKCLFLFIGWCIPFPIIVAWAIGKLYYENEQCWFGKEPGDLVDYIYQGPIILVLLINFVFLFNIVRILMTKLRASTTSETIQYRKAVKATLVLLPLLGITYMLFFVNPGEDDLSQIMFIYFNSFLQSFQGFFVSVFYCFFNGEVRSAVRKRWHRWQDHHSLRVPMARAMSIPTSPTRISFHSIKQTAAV

CRF1R receptor = target: T1, CRF1R receptor (UniProt P34998 24-415, limits assumed); assay: cell-based or functional assay
T1 sequence (looked up): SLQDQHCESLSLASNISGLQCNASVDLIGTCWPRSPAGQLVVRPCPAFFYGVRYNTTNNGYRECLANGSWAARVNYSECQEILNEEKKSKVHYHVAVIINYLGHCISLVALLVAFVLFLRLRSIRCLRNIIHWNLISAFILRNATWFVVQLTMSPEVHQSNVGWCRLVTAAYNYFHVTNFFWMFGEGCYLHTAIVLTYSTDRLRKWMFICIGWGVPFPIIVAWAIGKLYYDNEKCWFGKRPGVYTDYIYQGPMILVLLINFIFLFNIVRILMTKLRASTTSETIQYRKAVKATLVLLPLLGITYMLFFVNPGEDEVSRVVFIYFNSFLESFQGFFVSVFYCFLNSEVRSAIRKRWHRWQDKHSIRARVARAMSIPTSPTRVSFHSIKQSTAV

| Binder | EC50 [nM] (cAMP) [1] | EC50 (CRF1R receptor) [nM] | Emax (% I) (CRF1R receptor) [%] |
| --- | --- | --- | --- |
| Lauroyl-VLSLD[dV]PIKLK([γGlu-C20 diacid])KILLEQEKQKKQREQAETN[Aib]QILAQV-NH2 (SMILES CCCCCCCCCCCC(=O)N[C@H](C(=O)N[C@@H](CC(C)C)C(=O)N[C@@H](CO)C(=O)N[C@@H](CC(C)C)C(=O)N[C@@H](CC(=O)O)C(=O)N[C@@H](C(=O)N1CCC[C@H]1C(=O)N[C@H](C(=O)N[C@@H](CCCCN)C(=O)N[C@@H](CC(C)C)C(=O)N[C@@H](CCCCNC(=O)CC[C@H](NC(=O)CCCCCCCCCCCCCCCCCCC(=O)O)C(=O)O)C(=O)N[C@@H](CCCCN)C(=O)N[C@H](C(=O)N[C@@H](CC(C)C)C(=O)N[C@@H](CC(C)C)C(=O)N[C@@H](CCC(=O)O)C(=O)N[C@@H](CCC(N)=O)C(=O)N[C@@H](CCC(=O)O)C(=O)N[C@@H](CCCCN)C(=O)N[C@@H](CCC(N)=O)C(=O)N[C@@H](CCCCN)C(=O)N[C@@H](CCCCN)C(=O)N[C@@H](CCC(N)=O)C(=O)N[C@@H](CCCNC(=N)N)C(=O)N[C@@H](CCC(=O)O)C(=O)N[C@@H](CCC(N)=O)C(=O)N[C@@H](C)C(=O)N[C@@H](CCC(=O)O)C(=O)N[C@H](C(=O)N[C@@H](CC(N)=O)C(=O)NC(C)(C)C(=O)N[C@@H](CCC(N)=O)C(=O)N[C@H](C(=O)N[C@@H](CC(C)C)C(=O)N[C@@H](C)C(=O)N[C@@H](CCC(N)=O)C(=O)N[C@H](C(N)=O)C(C)C)[C@@H](C)CC)[C@@H](C)O)[C@@H](C)CC)[C@@H](C)CC)C(C)C)C(C)C) [SEQ ID NO 224] | 0.07 | 39.5 | 66 |
| Myristoyl-VLSLD[dV]PIKLK([γGlu-C20 diacid])KILLEQEKQKKQREQAETN[Aib]QILAQV-NH2 (SMILES CCCCCCCCCCCCCC(=O)N[C@H](C(=O)N[C@@H](CC(C)C)C(=O)N[C@@H](CO)C(=O)N[C@@H](CC(C)C)C(=O)N[C@@H](CC(=O)O)C(=O)N[C@@H](C(=O)N1CCC[C@H]1C(=O)N[C@H](C(=O)N[C@@H](CCCCN)C(=O)N[C@@H](CC(C)C)C(=O)N[C@@H](CCCCNC(=O)CC[C@H](NC(=O)CCCCCCCCCCCCCCCCCCC(=O)O)C(=O)O)C(=O)N[C@@H](CCCCN)C(=O)N[C@H](C(=O)N[C@@H](CC(C)C)C(=O)N[C@@H](CC(C)C)C(=O)N[C@@H](CCC(=O)O)C(=O)N[C@@H](CCC(N)=O)C(=O)N[C@@H](CCC(=O)O)C(=O)N[C@@H](CCCCN)C(=O)N[C@@H](CCC(N)=O)C(=O)N[C@@H](CCCCN)C(=O)N[C@@H](CCCCN)C(=O)N[C@@H](CCC(N)=O)C(=O)N[C@@H](CCCNC(=N)N)C(=O)N[C@@H](CCC(=O)O)C(=O)N[C@@H](CCC(N)=O)C(=O)N[C@@H](C)C(=O)N[C@@H](CCC(=O)O)C(=O)N[C@H](C(=O)N[C@@H](CC(N)=O)C(=O)NC(C)(C)C(=O)N[C@@H](CCC(N)=O)C(=O)N[C@H](C(=O)N[C@@H](CC(C)C)C(=O)N[C@@H](C)C(=O)N[C@@H](CCC(N)=O)C(=O)N[C@H](C(N)=O)C(C)C)[C@@H](C)CC)[C@@H](C)O)[C@@H](C)CC)[C@@H](C)CC)C(C)C)C(C)C) [SEQ ID NO 225] | 0.09 | 73.4 | 70 |
| Ac-IVLSLD[dV]PIGLK([γGlu-C20 diacid])KILLEQEKQKKQREQAETN[Aib]QILAQV-NH2 (SMILES CC[C@H](C)[C@H](NC(C)=O)C(=O)N[C@H](C(=O)N[C@@H](CC(C)C)C(=O)N[C@@H](CO)C(=O)N[C@@H](CC(C)C)C(=O)N[C@@H](CC(=O)O)C(=O)N[C@@H](C(=O)N1CCC[C@H]1C(=O)N[C@H](C(=O)NCC(=O)N[C@@H](CC(C)C)C(=O)N[C@@H](CCCCNC(=O)CC[C@H](NC(=O)CCCCCCCCCCCCCCCCCCC(=O)O)C(=O)O)C(=O)N[C@@H](CCCCN)C(=O)N[C@H](C(=O)N[C@@H](CC(C)C)C(=O)N[C@@H](CC(C)C)C(=O)N[C@@H](CCC(=O)O)C(=O)N[C@@H](CCC(N)=O)C(=O)N[C@@H](CCC(=O)O)C(=O)N[C@@H](CCCCN)C(=O)N[C@@H](CCC(N)=O)C(=O)N[C@@H](CCCCN)C(=O)N[C@@H](CCCCN)C(=O)N[C@@H](CCC(N)=O)C(=O)N[C@@H](CCCNC(=N)N)C(=O)N[C@@H](CCC(=O)O)C(=O)N[C@@H](CCC(N)=O)C(=O)N[C@@H](C)C(=O)N[C@@H](CCC(=O)O)C(=O)N[C@H](C(=O)N[C@@H](CC(N)=O)C(=O)NC(C)(C)C(=O)N[C@@H](CCC(N)=O)C(=O)N[C@H](C(=O)N[C@@H](CC(C)C)C(=O)N[C@@H](C)C(=O)N[C@@H](CCC(N)=O)C(=O)N[C@H](C(N)=O)C(C)C)[C@@H](C)CC)[C@@H](C)O)[C@@H](C)CC)[C@@H](C)CC)C(C)C)C(C)C) [SEQ ID NO 226] | 0.18 | 42.1 | 82 |
| Ac-IVLSLD[dV]PIGLK([γGlu-C20 diacid])KILLEQEKQKKQREQAETN[Api]QILAQV-NH2 (SMILES CC[C@H](C)[C@H](NC(C)=O)C(=O)N[C@H](C(=O)N[C@@H](CC(C)C)C(=O)N[C@@H](CO)C(=O)N[C@@H](CC(C)C)C(=O)N[C@@H](CC(=O)O)C(=O)N[C@@H](C(=O)N1CCC[C@H]1C(=O)N[C@H](C(=O)NCC(=O)N[C@@H](CC(C)C)C(=O)N[C@@H](CCCCNC(=O)CC[C@H](NC(=O)CCCCCCCCCCCCCCCCCCC(=O)O)C(=O)O)C(=O)N[C@@H](CCCCN)C(=O)N[C@H](C(=O)N[C@@H](CC(C)C)C(=O)N[C@@H](CC(C)C)C(=O)N[C@@H](CCC(=O)O)C(=O)N[C@@H](CCC(N)=O)C(=O)N[C@@H](CCC(=O)O)C(=O)N[C@@H](CCCCN)C(=O)N[C@@H](CCC(N)=O)C(=O)N[C@@H](CCCCN)C(=O)N[C@@H](CCCCN)C(=O)N[C@@H](CCC(N)=O)C(=O)N[C@@H](CCCNC(=N)N)C(=O)N[C@@H](CCC(=O)O)C(=O)N[C@@H](CCC(N)=O)C(=O)N[C@@H](C)C(=O)N[C@@H](CCC(=O)O)C(=O)N[C@H](C(=O)N[C@@H](CC(N)=O)C(=O)NC1(C(=O)N[C@@H](CCC(N)=O)C(=O)N[C@H](C(=O)N[C@@H](CC(C)C)C(=O)N[C@@H](C)C(=O)N[C@@H](CCC(N)=O)C(=O)N[C@H](C(N)=O)C(C)C)[C@@H](C)CC)CCNCC1)[C@@H](C)O)[C@@H](C)CC)[C@@H](C)CC)C(C)C)C(C)C) [SEQ ID NO 227] | 0.2 | 1.74 | 97 |
